Experiment [1] addresses soluble HLA-DR1 loaded with A2 peptide (human). The experiment can be described thus: SEC.
The target in experiment [2] is soluble gHgL (gH residue 18-679 and gL residue 24-137) (Epstein-Barr virus) (UniProt P03231). The experiment can be described thus: SEC. Background: Size exclusion chromatography separates by hydrodynamic size, large species first.
UniProt P03231, sequence (P03231 18-679 limits assumed, chain 1 of 2): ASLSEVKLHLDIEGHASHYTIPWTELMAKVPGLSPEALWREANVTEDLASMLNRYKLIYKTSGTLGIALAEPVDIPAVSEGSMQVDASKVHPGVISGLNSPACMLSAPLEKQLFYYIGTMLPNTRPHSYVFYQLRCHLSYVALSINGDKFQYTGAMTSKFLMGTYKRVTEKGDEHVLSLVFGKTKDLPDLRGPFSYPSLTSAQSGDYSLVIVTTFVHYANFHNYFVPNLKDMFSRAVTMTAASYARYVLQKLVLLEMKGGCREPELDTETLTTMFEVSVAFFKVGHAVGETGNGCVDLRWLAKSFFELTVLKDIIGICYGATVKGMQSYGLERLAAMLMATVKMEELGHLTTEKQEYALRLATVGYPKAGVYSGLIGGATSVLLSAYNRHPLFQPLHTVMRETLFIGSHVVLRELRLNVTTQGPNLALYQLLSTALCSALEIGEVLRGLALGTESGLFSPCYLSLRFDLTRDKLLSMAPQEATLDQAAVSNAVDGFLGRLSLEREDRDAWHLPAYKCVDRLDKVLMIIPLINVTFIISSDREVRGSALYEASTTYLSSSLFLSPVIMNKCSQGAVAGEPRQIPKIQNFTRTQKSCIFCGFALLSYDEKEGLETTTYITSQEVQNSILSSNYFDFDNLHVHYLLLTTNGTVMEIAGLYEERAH
UniProt P03231, sequence (P03212 24-137 limits assumed, chain 2 of 2, further chain): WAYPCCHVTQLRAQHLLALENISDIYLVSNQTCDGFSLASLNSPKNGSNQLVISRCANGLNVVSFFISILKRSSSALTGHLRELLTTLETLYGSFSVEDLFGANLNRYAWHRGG

“soluble gp42 (residue 33-223) (from UniProt P03205 33-223) (domain or fragment)” had a stoichiometry N (gp42 per HLA-DR1) in experiment [1] of 1. The substance further registered a stoichiometry N (gp42 per gHgL) in experiment [2] of 1.
